This note sets out measurements from patent publication US6583108B1, “Human bikunin” (Bayer Corporation, dated 2003).

The target of assay [1] is bovine trypsin (bovine) (UniProt P00760).
Assay [2] concerns the target Factor XIa. The assay can be described thus: enzyme inhibition kinetics.
In assay [3] the target is Factor XIa. In words: enzyme inhibition kinetics, E(OBz)AR-AMC substrate.
Assay [4] has as its target bovine trypsin (bovine) (UniProt P00760). This is another data set of the same source.
In assay [5] the target is Factor XIIa. The assay can be described thus: enzyme inhibition kinetics; first preparation of bikunin (7-64).
In assay [6] the target is bovine trypsin (bovine) (UniProt P00760). This is another data set of the same source.
Assay [7] addresses bovine pancreatic kallikrein (bovine). The assay can be described thus: enzyme inhibition kinetics; first preparation of bikunin (7-64).
Assay [8] has as its target human neutrophil elastase (human, UniProt P08246). The description is as above.
In assay [9] the target is bovine trypsin (bovine) (UniProt P00760). This is another data set of the same source.
Assay [10] has the same target. The source holds these as a separate data set.
The target in assay [11] is Factor XIa. In words: enzyme inhibition kinetics; Sf9-derived bikunin (1-170).
Assay [12] deals with Tissue Factor VIIa. Described as above.
In assay [13] the target is bovine pancreatic kallikrein (bovine). The assay is described as above.

Like-named read-outs stand apart in the source and are kept apart here.

bovine trypsin (bovine), sequence (P00760 24-246): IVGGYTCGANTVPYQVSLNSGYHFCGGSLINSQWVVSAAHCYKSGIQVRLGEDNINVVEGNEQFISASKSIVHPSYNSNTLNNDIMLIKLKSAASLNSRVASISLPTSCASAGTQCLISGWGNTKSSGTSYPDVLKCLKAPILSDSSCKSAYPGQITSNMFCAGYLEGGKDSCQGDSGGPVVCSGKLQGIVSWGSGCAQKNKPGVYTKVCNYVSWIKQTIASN

As to synthetic placental bikunin (102-159), the trypsin inhibitory activity, specific activity (U/mg) of the purified refolded peptide in [1] was found to be 300000 U/mg. Also, the Ki in [2] and in assay [3] was 15 nM each time.
“recombinant placental bikunin (102-159) expressed in yeast SC101 (construct #1)” gave an inhibition of trypsin by yeast culture supernatant (applysate) in assay [4] of 82%.
synthetic placental bikunin (7-64) returned a Ki in [5] of more than 300 nM.

B1: synthetic placental bikunin (7-64) (other)
chain: IHDFCLVSKVVGRCRASMPRWWYNVTDGSCQLFVYGGCDGNSNNYLTKEECLKKCATV
Take B1: the trypsin inhibitory activity, specific activity (U/mg) of the purified refolded peptide in assay [6] is 294000 U/mg. The Ki in [7] is 0.4 nM; in assay [8] it was more than 100 nM.

B2: placental bikunin 98-159 expressed in yeast (construct #4) (protein)
chain: DMFNYEEYCTANAVTGPCRASFPRWYFDVERNSCNNFIYGGCRGNKNSYRSEEACMLRCFRQ
For the molecule B2, the inhibition of trypsin by yeast culture supernatant (applysate) in assay [4] was 93%.

B3: placental bikunin 101-159 expressed in yeast (construct #3) (protein)
chain: NYEEYCTANAVTGPCRASFPRWYFDVERNSCNNFIYGGCRGNKNSYRSEEACMLRCFRQ
The molecule B3 showed an inhibition of trypsin by yeast culture supernatant (applysate) in [4] of 25%.

B4: native human placental bikunin isolated from human placenta (protein)
chain: ADRERSIHDFCLVSKVVGRCRASMPRWWYNVTDGSCQLFVYGGCDGNSNNYLTKEECLKKCATVTENATGDLATSRNAADSSVPSAPRRQDSEDHSSDMFNYEEYCTANAVTGPCRASFPRWYFDVERNSCNNFIYGGCRGNKNSYRSEEACMLRCFRQQENPPLPLGSK
modifications: probably glycosylated at the asparagine residue at position 30
In assay [9], B4 returned a trypsin inhibitory activity (Units/OD 280) after Superdex 75 of 24500 Units/OD 280.

B5: recombinant placental bikunin (1-170) from baculovirus/Sf9 expression (protein)
chain: ADRERSIHDFCLVSKVVGRCRASMPRWWYNVTDGSCQLFVYGGCDGNSNNYLTKEECLKKCATVTENATGDLATSRNAADSSVPSAPRRQDSEDHSSDMFNYEEYCTANAVTGPCRASFPRWYFDVERNSCNNFIYGGCRGNKNSYRSEEACMLRCFRQQENPPLPLGSK
modifications: probably glycosylated at the asparagine residue at position 30
B5 gave a trypsin inhibitory activity, specific activity (U/OD) after C18 reverse-phase in [10] of 72200 U/OD. Besides, the Ki in [11] was 3 nM; in [12], 800 nM; in [13] it was 0.12 nM.

A word on the Ki: it is a measure of affinity in units of concentration, obtained from inhibition or displacement. High values mean weaker binding, low ones tighter binding.
